Data taken from PMC8079276.

Biological target: UDP-N-acetylglucosamine-peptide N-acetylglucosaminyltransferase (mouse (endogenous in MEFs)) (UniProt Q8CGY8)
Test: co-IP; data not shown: share of HCF1 of the MEF lysate that is enriched by immunoprecipitation of endogenous OGT

Sequence of UniProt Q8CGY8 (Q8CGY8 whole entry): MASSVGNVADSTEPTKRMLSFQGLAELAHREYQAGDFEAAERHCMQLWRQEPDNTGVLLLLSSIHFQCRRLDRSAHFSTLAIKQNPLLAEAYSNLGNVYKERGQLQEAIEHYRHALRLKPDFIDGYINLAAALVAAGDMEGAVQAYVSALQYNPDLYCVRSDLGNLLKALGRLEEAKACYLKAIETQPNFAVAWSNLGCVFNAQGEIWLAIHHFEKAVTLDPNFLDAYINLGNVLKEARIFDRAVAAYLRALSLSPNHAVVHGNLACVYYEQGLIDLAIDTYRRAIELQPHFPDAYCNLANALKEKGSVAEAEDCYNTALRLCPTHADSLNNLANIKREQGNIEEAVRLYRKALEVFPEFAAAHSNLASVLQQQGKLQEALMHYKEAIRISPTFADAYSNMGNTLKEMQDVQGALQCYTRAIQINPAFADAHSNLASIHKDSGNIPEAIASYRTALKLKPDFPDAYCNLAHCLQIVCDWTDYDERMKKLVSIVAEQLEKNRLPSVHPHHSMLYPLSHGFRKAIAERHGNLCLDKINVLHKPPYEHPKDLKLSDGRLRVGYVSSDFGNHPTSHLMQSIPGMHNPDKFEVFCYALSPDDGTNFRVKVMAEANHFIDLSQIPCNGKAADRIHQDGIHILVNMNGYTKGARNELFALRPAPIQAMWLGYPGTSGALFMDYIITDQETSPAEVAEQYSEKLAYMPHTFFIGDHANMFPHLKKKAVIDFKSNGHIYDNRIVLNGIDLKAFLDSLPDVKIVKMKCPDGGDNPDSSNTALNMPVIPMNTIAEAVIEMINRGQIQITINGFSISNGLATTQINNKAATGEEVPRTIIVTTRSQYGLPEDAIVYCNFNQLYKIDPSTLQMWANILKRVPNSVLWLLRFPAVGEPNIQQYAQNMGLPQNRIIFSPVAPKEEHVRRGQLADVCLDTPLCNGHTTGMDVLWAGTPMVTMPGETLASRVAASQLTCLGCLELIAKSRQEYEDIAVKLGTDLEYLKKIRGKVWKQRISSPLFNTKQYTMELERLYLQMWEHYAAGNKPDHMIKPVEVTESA

percent of FL HCF1 enriched by OGT immunoprecipitation: 80 to 90%
Substance: Host cell factor 1 precursor, Q61191 1-2045
